Measurements reported in patent US20060058231A1.

Legend:
Assay in all cases: ELISA-like plate assay, captured BMP-7 from conditioned media, receptor-Fc detection
[1] = target: T1, BMPRII receptor-Fc fusion (UniProt Q13873)
T1 sequence (looked up): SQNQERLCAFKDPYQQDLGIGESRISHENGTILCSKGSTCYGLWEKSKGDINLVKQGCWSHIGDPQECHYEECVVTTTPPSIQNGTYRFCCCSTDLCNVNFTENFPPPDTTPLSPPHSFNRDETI

[2] = target: T2, BMPRIb receptor-Fc fusion (UniProt O00238)
T2 sequence (looked up): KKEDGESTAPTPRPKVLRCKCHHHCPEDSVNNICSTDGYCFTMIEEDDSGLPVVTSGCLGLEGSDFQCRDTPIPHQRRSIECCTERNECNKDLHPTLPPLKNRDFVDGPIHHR

[3] = target: ActRIIa receptor-Fc fusion (UniProt P27037)
Sequence of ActRIIa receptor-Fc fusion (P27037 20-134 limits assumed): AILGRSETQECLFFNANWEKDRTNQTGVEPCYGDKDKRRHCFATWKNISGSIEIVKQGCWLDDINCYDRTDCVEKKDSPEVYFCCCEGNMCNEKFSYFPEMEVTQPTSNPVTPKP

[4] = target: BMPRIa receptor-Fc fusion (UniProt P36894)
Sequence of BMPRIa receptor-Fc fusion (P36894 24-152 limits assumed): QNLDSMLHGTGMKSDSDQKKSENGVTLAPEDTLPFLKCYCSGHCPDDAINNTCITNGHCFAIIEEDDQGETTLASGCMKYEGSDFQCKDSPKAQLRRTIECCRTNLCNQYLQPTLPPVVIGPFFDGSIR

Substance	BMPRII binding (relative to wild type = 1.0) (relative to wild type) [1]	BMPRIb binding (relative to wild type = 1.0) (relative to wild type) [2]	ActRIIa binding (relative to wild type = 1.0) (relative to wild type) [3]	BMPRIa binding (relative to wild type = 1.0) (relative to wild type) [4]
BMP-7 variant F117S (from UniProt P18075 293-431 at identity 0.99)) (ligand)	-0.04	-0.08	–	–
BMP-7 variant L115A (from UniProt P18075 293-431 at identity 0.99)) (ligand)	-0.01	–	0.01	-0.02
BMP-7 variant S77H (from UniProt P18075 293-431 at identity 0.99)) (ligand)	0.08	–	–	–
BMP-7 variant W52P (from UniProt P18075 293-431 at identity 0.99)) (ligand)	0.01	–	0.07	0.03

Second part, the substance after the results:

BMPRII binding (relative to wild type = 1.0) (relative to wild type) [1]	BMPRIb binding (relative to wild type = 1.0) (relative to wild type) [2]	ActRIIa binding (relative to wild type = 1.0) (relative to wild type) [3]	BMPRIa binding (relative to wild type = 1.0) (relative to wild type) [4]	Substance
0.09	–	–	–	BMP-7 variant F93A (from UniProt P18075 293-431 at identity 0.99)) (ligand)
0.07	–	–	–	BMP-7 variant L21E (from UniProt P18075 293-431 at identity 0.99)) (ligand)
-0.13	-0.51	–	–	BMP-7 variant R48E (from UniProt P18075 293-431 at identity 0.99)) (ligand)
0.03	–	0.09	–	BMP-7 variant W55A (from UniProt P18075 293-431 at identity 0.99)) (ligand)
